Data taken from patent US20090130105A1 (Biogen, published 2009).
One block for each binder: values may come before it.

Legend:
sIGF-1R(1-903) [1] = target: T1, sIGF-1R(1-903) (human, UniProt P08069 31-933); test: ITC, 25 °C, antibody into sIGF-1R(1-903)
T1 construct: also called soluble IGF-1R ectodomain
Description: (§1) Isothermal Titration Calorimetry (ITC). […] The reagents were co-dialyzed against PBS, pH 7.2. The protein solutions were adjusted to the concentrations listed above by dilution using PBS dialysate. […] The protein solutions were prepared as described above for the MAb binding experiments. All ITC experiments were performed on an ITC₂₀₀ microcalorimeter (MicroCal, LLC) at 25° C. […] IGF-1R bispecific antibodies. A four minute equilibration period was used between all injections with an initial delay of 60 seconds. Numerical integration of the data was performed using the ITC data analysis software supplied by MicroCal (Origin). ΔHA° (T) values were calculated based on the difference between the average heat liberated/absorbed during the binding phase of the injections and the average heat of dilution found once the receptor, IGF-1R, was saturated with MAb or BsAb.

sIGF-1R(1-903) [2] = target: T1, sIGF-1R(1-903); test: equilibrium solution-phase SPR, free sIGF-1R(1-903) read on G11 surface
[3] = target: T2, human IGF-1R on H322M non-small cell lung cancer cells (human, UniProt P08069 31-1367); test: flow cytometry on H322M cells, anti-human Fc PE secondary (FIG. 55B)
T2 construct: Endogenous receptor of the tumor cell line; also called cell surface IGF-1R
T2 sequence (P08069 31-1367, stated change not applied): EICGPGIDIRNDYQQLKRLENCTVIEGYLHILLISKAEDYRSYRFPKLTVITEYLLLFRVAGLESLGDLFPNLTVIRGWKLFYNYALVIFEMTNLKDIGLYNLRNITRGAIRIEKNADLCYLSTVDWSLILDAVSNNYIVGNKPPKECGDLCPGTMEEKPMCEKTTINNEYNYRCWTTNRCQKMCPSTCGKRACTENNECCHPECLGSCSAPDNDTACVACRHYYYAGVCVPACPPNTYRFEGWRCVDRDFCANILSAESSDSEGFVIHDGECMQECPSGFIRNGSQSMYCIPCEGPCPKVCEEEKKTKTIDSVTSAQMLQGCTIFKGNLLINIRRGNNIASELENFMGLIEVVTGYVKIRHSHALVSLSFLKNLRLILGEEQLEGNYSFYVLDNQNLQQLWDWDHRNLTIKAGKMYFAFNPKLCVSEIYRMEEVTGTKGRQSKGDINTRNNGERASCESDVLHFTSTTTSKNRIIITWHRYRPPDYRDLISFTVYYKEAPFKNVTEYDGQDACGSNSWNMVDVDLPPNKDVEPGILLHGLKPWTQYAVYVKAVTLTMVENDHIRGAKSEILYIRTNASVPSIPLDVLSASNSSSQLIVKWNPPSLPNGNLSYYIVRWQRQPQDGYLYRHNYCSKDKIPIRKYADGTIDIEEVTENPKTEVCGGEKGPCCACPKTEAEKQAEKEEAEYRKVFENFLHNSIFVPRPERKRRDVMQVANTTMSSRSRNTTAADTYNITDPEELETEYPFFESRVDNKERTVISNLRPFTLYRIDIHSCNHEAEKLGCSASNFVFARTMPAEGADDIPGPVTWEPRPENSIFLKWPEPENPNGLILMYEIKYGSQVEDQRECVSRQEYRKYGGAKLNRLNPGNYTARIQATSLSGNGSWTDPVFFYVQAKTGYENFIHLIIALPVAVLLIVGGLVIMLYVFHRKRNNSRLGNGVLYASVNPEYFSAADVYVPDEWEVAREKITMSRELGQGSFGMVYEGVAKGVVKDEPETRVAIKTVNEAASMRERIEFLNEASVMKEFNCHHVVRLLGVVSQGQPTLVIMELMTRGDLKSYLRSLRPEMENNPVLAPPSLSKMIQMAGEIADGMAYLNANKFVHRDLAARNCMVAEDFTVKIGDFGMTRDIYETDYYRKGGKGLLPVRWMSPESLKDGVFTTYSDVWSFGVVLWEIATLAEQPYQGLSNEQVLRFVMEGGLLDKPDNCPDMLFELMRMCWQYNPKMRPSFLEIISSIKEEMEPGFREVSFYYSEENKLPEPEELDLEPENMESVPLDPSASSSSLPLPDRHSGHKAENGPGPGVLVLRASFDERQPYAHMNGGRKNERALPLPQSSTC
Description: (§2) Cell lines were routinely cultured no greater than 20 passages. Flow cyotometric analysis of antibody binding to human cancer cells. Cells were lifted with cell dissociation buffer (Gibco catalog #13151-014), counted, washed and adjusted to 5×10⁶ cells/ml. Cells (2.5×10⁵; 50 uL) were added to each well of a 96-well round bottom plate (Costar #3799). Purified antibodies were tested at a starting concentration of 300 nM with serial half-log dilutions in FACS buffer. FACS buffer used throughout the assay was PBS (without Ca++/Mg++) containing 5% FBS. Samples were incubated on ice for 30 minutes, washed 3× with 200 uL FACS buffer and centrifuged at 1200 rpm for 3 minutes at 4° C. C2B8 (rituximab, IgG1) was used as a negative control. […] Samples were incubated for an additional 30 minutes on ice, shielded from light. Cells were washed as described above and resuspended in 100 μl FACS buffer containing propidium iodide (PI) for dead cell exclusion (BD Pharmingen, catalog# 51-66211E or 556463; use at 1:500 final in FACS buffer). Samples were run in triplicate using the FACSArray flow cytometer (Becton Dickinson) with 5000 live events collected per sample. Data analysis was performed using the GraphPad Prism version 5.0 software (GraphPad Software Inc., 11452 El Camino Real #215, San Diego, Calif. 92130). Results. […]

human IGF-1R(1-903)-Fc [4] = target: T3, human IGF-1R(1-903)-Fc (human, UniProt P08069 31-933); test: IGF-2 blocking ELISA: antibody titrated in 640 nM IGF-2 His on biotinylated hIGF-1R-Fc on streptavidin plates, bound ligand detected with anti-His-HRP
T3 construct: also called hIGF-1R-Fc; SDWT; not shown: human IgG1 Fc, C-terminal tag
T3 sequence (P08069 31-933): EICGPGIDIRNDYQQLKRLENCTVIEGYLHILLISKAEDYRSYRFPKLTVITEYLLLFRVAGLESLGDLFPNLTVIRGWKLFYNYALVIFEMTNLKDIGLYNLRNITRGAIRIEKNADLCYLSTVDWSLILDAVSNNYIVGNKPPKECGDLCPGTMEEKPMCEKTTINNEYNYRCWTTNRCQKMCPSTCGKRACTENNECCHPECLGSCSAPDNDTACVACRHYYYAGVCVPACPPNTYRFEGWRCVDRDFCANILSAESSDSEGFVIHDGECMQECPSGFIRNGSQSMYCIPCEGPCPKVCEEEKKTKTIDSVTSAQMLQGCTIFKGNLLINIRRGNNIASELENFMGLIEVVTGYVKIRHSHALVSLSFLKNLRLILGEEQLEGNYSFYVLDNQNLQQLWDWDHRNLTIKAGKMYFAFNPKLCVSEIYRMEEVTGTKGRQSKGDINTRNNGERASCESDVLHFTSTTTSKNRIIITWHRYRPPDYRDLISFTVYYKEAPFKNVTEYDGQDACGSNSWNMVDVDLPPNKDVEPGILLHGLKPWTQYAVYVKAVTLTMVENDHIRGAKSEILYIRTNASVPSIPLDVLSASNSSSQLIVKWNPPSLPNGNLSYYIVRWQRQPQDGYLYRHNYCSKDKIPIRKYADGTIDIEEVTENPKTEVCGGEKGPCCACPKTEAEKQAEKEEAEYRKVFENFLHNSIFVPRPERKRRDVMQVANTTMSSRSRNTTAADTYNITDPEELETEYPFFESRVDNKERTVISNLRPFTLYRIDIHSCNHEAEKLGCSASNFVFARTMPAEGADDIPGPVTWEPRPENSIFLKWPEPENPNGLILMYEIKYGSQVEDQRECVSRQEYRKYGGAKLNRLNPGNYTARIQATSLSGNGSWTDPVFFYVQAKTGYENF

[5] = target: T4, human IGF-1R(1-902)-His10 (human, UniProt P08069 31-932); test: SPR competition (Biacore 3000): soluble antibody titrated into 40 nM hIGF-1R-His, mixture injected over immobilized M14-G11
T4 construct: Bought from R&D Systems (305-GR-050); also called hIGF-1R-His10; hIGF-1R-His
T4 sequence (P08069 other isoform, or with tags, fused parts or gaps): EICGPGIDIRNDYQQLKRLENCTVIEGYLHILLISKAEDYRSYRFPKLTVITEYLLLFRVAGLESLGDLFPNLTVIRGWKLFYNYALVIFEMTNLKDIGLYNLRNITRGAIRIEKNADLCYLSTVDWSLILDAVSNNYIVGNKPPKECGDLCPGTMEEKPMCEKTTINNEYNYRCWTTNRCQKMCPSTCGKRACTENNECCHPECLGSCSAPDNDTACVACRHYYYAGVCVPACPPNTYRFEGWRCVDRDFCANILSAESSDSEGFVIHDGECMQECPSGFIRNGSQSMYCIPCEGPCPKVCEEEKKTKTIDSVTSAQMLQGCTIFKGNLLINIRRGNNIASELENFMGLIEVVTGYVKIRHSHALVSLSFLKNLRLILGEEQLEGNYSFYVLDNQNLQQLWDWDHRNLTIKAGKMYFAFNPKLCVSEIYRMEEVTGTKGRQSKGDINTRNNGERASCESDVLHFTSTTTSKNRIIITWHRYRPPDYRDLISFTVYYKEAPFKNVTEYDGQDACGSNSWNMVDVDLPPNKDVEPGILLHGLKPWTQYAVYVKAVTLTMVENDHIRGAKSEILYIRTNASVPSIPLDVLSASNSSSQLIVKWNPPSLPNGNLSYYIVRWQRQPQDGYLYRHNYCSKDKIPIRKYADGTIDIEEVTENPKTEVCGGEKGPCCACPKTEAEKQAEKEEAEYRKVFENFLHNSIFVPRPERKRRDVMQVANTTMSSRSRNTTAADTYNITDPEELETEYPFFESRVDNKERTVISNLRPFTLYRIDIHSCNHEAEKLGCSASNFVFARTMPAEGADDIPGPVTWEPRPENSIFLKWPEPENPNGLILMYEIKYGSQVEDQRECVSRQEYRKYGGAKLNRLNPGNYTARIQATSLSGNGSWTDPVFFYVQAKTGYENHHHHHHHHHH
Description: Regeneration was achieved by three 10 μL injections of 0.1 M glycine, pH 2.0. 100% hIGF-1R-His binding to each antibody was determined by the signal above the baseline under mass transport-limiting conditions 60 seconds into the injection.

[6] = target: T2, human IGF-1R on H322M non-small cell …; test: flow cytometry on H322M cells
Description: as §2

[7] = target: T2, human IGF-1R on H322M non-small cell …; test: cell-based or functional assay
sIGF-1R(1-903) [8] = target: T1, sIGF-1R(1-903); test: ITC series titration, G11 MAb into sIGF-1R(1-903) holding excess C06 MAb
Description: The protein solutions were prepared as described above for the MAb binding experiments. All ITC experiments were performed on an ITC₂₀₀ microcalorimeter (MicroCal, LLC) at 25° C. […] IGF-1R bispecific antibodies. A four minute equilibration period was used between all injections with an initial delay of 60 seconds. Numerical integration of the data was performed using the ITC data analysis software supplied by MicroCal (Origin). ΔHA° (T) values were calculated based on the difference between the average heat liberated/absorbed during the binding phase of the injections and the average heat of dilution found once the receptor, IGF-1R, was saturated with MAb or BsAb.
Both the dimeric receptor and the bivalent MAbs contain two potential binding sites.

human IGF-1R(1-903)-Fc [9] = target: T3, human IGF-1R(1-903)-Fc; test: ELISA, blocking of IGF-2 His (640 nM by the table head) on biotinylated hIGF-1R-Fc
human IGF-1R(1-903)-Fc [10] = target: T3, human IGF-1R(1-903)-Fc; test: ELISA, blocking of 320 nM IGF-1 His on biotinylated hIGF-1R-Fc
Description: hIGF-1R-Fc was biotinylated using EZ-Link Sulfo-NHS-LC-Biotin according to the protocol provided by the manufacturer (Pierce Cat. No. 21335). Biotinylated human IGF-1R Fc (NB12453-9) at 5 μg/ml was added to the wells of SigmaScreen streptavidin-coated 96-well plates (Sigma, Cat. No. M5432-5EA) at 100 μL/well and incubated overnight at 2-8° C. The plates were then washed four times with 200 μL/well PBST. […] The dilutions were added to the plates in duplicate at 100 μL/well and the plates were incubated at RT for 1 hour. The plates were then washed four times with 200 μL/well PBST. An HRP-conjugated anti-Histag antibody (Penta-His HRP Conjugate, QIAGEN, Cat. No. 1014992) was diluted 1:1000 in PBST and added to plates at 100 μL/well, and the plates were incubated at RT for one hour. The plates were then washed four times with 200 μL/well PBST. SureBlue Reserve TMB Microwell Peroxidase Substrate (KPL, Cat. No. 53-00-01) was added to plates at 100 μL/well followed by 1% phosphoric acid at 100 μL/well once the desired reaction was observed. The absorbance of each well was determined at 450 nm, and the results were normalized and plotted against the log of antibody concentration.

[11] = target: T2, human IGF-1R on H322M non-small cell …; test: flow cytometry on H322M cells, anti-human Fab PE secondary (FIG. 55A)
Description: as §2

human IGF-1R(1-903)-Fc [12] = target: T3, human IGF-1R(1-903)-Fc; test: IGF-1 blocking ELISA at 20 nM IGF-1 His on biotinylated hIGF-1R-Fc
Description: (§3) The dilutions were added to the plates in duplicate at 100 μL/well and the plates were incubated at RT for 1 hour. The plates were then washed four times with 200 μL/well PBST. An HRP-conjugated anti-Histag antibody (Penta-His HRP Conjugate, QIAGEN, Cat. No. 1014992) was diluted 1:1000 in PBST and added to plates at 100 μL/well, and the plates were incubated at RT for one hour. The plates were then washed four times with 200 μL/well PBST. SureBlue Reserve TMB Microwell Peroxidase Substrate (KPL, Cat. No. 53-00-01) was added to plates at 100 μL/well followed by 1% phosphoric acid at 100 μL/well once the desired reaction was observed. The absorbance of each well was determined at 450 nm, and the results were normalized and plotted against the log of antibody concentration.
(§4) Ligand Blocking Properties.

sIGF-1R(1-903) [13] = target: T1, sIGF-1R(1-903); test: ITC, 25 °C; footnote a: affinity too high for accurate measurement
Description: as §1

[14] = target: T5, hIGF-1R-Fc mutant SD202 (D250S) (human, UniProt P08069 31-933); test: SPR, Fab over captured mutant
T5 construct: not shown: human IgG1 Fc, C-terminal tag
T5 sequence (P08069 31-933 D280S): as the sequence (P08069 31-933) above, with D250S counted along it
Description: (§5) Surface plasmon resonance (SPR) experiments were performed on a Biacore 3000 instrument set to 25° C. […] The antibody sensorchip surfaces were prepared by injecting each antibody (diluted 100 μg/mL in 10 mM Acetate, pH 4.0) over EDC/NHS-activated sensorchip surfaces according to the standard protocol of the manufacturer. […] Both hIGF-1R-Fc and mIGF-1R-Fc proteins oligomerize due to the incorporation of two separate homodimeric regions (IGF-1R and IgG1-Fc). […] After, completion of the receptor-Fc loading step, flow rates were elevated to 5 μl/min. […] Dissociation was measured for 7 minutes after the antibody injections were complete. Finally, the flow rate was elevated to 30 μL/min and the chip surfaces were regenerated by 2×10 μL injections of 0.1 M glycine, pH 2.

[15] = target: T6, hIGF-1R-Fc mutant SD201 (D248A) (human, UniProt P08069 31-933); test: SPR, Fab over captured mutant
T6 construct: not shown: human IgG1 Fc, C-terminal tag
T6 sequence (P08069 31-933 D278A): as the sequence (P08069 31-933) above, with D248A counted along it
Description: as §5

[16] = target: T7, hIGF-1R-Fc mutant SD008 (S257F) (human, UniProt P08069 31-933); test: SPR, Fab over captured mutant hIGF-1R-Fc
T7 construct: not shown: human IgG1 Fc, C-terminal tag
T7 sequence (P08069 31-933 S287F): as the sequence (P08069 31-933) above, with S257F counted along it
Description: as §5

[17] = target: T8, hIGF-1R-Fc mutant SD012 (E303G) (human, UniProt P08069 31-933); test: SPR, Fab over captured mutant hIGF-1R-Fc
T8 construct: not shown: human IgG1 Fc, C-terminal tag
T8 sequence (P08069 31-933 E333G): as the sequence (P08069 31-933) above, with E303G counted along it
Description: as §5

human IGF-1R(1-903)-Fc [18] = target: T3, human IGF-1R(1-903)-Fc; test: IGF-1 blocking ELISA: antibody titrated in 320 nM IGF-1 His on biotinylated hIGF-1R-Fc on streptavidin plates, bound ligand detected with anti-His-HRP
Description: as §3, §4

T1 sequence (P08069 31-933): as the sequence (P08069 31-933) above

ΔH° (sIGF-1R(1-903) [1]): -26.6 kcal/mol
Kd (sIGF-1R(1-903) [2]): 0.1 nM
n (#G11 specific binding sites) (sIGF-1R(1-903) [2]): 1.1
EC50 [3]: 0.72 nM
IC50 (read off the curve) (human IGF-1R(1-903)-Fc [4]): ~2 nM
IC50 (read off the curve) [5]: ~20 nM
EC50 [6]: < 1 nM
reduction of surface IGF-1R after 24 hours (FACS, H322M cells) [7]: > 70%
ΔH° (sIGF-1R(1-903) [8]): -16.2 kcal/mol
IC50 (human IGF-1R(1-903)-Fc [9]): 7.9 nM
IC50 (human IGF-1R(1-903)-Fc [10]): 13 nM
EC50 [11]: 0.44 nM
IC50 (read off the curve) (human IGF-1R(1-903)-Fc [12]): ~2 nM
-TΔS (sIGF-1R(1-903) [13]): 14.8 kcal/mol
Kd (sIGF-1R(1-903) [13]): 6 nM
ΔG (sIGF-1R(1-903) [13]): -11.2 kcal/mol
B1: M14-G11 antibody (antibody, V domains shown)
VH: EVQLLESGGGLVQPGGSLRLSCAASGFTFSNYPMYWVRQAPGKGLEWVSRISSSGGRTVYADSVKGRFTISRDNSKNTLYLQMNSLRAEDTAVYYCARDRWSRSAAEYGLGGYWGQGTLVTVSS
VL: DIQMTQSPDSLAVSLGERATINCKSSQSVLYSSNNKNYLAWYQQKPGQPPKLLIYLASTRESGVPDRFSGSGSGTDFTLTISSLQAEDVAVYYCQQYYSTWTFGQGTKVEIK
notes: Fully human full-length antibody; also called M14.G11.G4.P.agly; G11.G4P.agly

Kd (sIGF-1R(1-903) [2]): 4 nM
n (#G11 specific binding sites) (sIGF-1R(1-903) [2]): 1.7
binding result [14]: no binding (tested: up to 30 nM Fab)
binding result [15]: no binding (tested: up to 30 nM Fab)
fold loss in affinity (KD) against wild type [16]: ~3 fold
fold loss in affinity (KD) against wild type [17]: ~3 fold
IC50 (read off the curve) (human IGF-1R(1-903)-Fc [18]): ~6 nM
B2: M14-G11 Fab (Fab, V domains shown)
VH: B1 VH
VL: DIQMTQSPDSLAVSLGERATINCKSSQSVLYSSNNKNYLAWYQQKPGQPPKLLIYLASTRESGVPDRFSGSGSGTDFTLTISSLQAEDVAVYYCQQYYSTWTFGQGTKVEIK
notes: Enzymatically derived Fab
